Experimental data published in article PMC4510890.

Columns and labels:
[1] = molecular target: recombinant rabbit ASI(+)RyR1 (rabbit) (UniProt P11716)
[2] = molecular target: recombinant rabbit ASI(+)RyR1 (rabbit) (UniProt P11716); remark: listed apart in the source

dihydropyridine receptor β1a subunit (from UniProt P19517 1-524) (natural protein)
relative Po of WT RyR1 channels in lipid bilayers, 10 nM to 100 nM β1a (1.8-fold at 10 nM, 1.9-fold at 100 nM), cis 10 μM Ca2+ and 2 mM ATP [1]: 1.9 fold | relative Po of ASI(+)RyR1 channels in lipid bilayers, 10 nM β1a (50 nM also tested, number not given), cis 10 μM Ca2+, no ATP [2]: 4.4 fold | relative Po of ASI(−)RyR1 channels in lipid bilayers, 10 nM β1a (50 nM also tested, number not given), cis 10 μM Ca2+, no ATP [2]: 2.3 fold
